Values quoted from earlier work in publication PMC2783296.

Target: Glu134 (UniProt position 134, VVLAIERYVVV)
Test: IR
Conditions: Photoactivated metarhodopsin II (all-trans retinal, unprotonated Schiff base)

In the case of “Rhodopsin (metarhodopsin II photointermediate) (Bos taurus (inferred; species not stated in the article))”, the pKa is given as 6.3.
